Data reported in patent publication US20240392004A1 (IMMUNOWAKE, published 2024).

Experiments:
[1] = molecular target: human PD-1 on cells (HEK-PD-1 reporter cells; activated PBMC) (human, UniProt Q15116 25-288); assay: cell-based or functional assay
[2] = molecular target: T1, human IL-2 receptor (IL-2Rα, IL-2Rβ, IL-2Rγ) (human, UniProt P01589 22-272; P14784 27-551; P31785 23-369); assay: cell-based or functional assay
T1 sequence (looked up) 1: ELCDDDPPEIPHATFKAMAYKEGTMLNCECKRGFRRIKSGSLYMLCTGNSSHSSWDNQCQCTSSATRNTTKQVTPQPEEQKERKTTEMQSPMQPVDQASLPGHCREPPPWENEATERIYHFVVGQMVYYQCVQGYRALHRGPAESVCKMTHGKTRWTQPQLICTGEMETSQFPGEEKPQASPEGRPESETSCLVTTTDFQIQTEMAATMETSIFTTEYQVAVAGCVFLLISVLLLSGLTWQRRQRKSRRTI
T1 sequence (looked up) 2: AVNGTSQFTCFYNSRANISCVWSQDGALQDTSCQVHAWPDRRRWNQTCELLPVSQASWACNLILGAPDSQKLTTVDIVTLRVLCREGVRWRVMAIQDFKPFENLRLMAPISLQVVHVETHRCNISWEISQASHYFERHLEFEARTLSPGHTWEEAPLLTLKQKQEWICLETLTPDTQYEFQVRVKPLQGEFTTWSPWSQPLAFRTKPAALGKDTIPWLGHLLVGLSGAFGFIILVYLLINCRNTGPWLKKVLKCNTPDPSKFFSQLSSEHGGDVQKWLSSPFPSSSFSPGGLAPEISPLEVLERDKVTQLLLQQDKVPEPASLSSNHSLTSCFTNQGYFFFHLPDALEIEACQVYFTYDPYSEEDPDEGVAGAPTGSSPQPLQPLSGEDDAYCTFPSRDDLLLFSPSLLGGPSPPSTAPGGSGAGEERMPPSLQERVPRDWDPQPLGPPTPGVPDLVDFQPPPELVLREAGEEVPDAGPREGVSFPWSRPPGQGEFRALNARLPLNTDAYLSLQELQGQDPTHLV
T1 sequence (looked up) 3: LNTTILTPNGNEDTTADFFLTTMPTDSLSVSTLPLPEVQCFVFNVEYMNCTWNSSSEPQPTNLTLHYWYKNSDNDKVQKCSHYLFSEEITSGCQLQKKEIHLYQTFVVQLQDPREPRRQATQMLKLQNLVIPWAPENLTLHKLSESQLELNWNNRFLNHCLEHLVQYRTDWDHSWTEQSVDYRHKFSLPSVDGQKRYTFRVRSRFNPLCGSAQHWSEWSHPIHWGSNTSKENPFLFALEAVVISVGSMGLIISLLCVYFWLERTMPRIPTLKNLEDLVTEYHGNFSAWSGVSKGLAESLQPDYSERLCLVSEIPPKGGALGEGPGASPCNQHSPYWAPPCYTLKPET

[3] = molecular target: T1, human IL-2 receptor (IL-2Rα, IL-2Rβ, …); assay: FACS on HEK-Blue IL-2 cells (IL-2 receptor, no PD-1)

Sequence of human PD-1 on cells (HEK-PD-1 reporter cells; activated PBMC) (Q15116 25-288): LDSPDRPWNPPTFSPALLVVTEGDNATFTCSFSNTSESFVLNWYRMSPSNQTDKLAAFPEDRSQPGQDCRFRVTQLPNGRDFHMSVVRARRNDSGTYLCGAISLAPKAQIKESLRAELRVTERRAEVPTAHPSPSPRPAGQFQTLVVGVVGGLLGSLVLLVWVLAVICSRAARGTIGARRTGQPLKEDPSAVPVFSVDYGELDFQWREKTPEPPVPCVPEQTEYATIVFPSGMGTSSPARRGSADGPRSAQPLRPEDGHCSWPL

Percent IL-2 signal transduction (HEK-PD-1-IL-2 reporter assay) [1]: 43.5% | Percent IL-2 signal transduction (HEK-IL-2 reporter assay) [2]: 2.4% | binding result [3]: no binding
B1: IL-2(R38D/K43E/E61R)/PD-L2-Fc immunomodulatory molecule (Fc fusion)
chain 1: LFTVTVPKELYIIEHGSNVTLECNFDTGSHVNLGAITASLQKVENDTSPHRERATLLEEQLPLGKASFHIPQVQVRDEGQYQCIIIYGVAWDYKYLTLKVKASYRKINTHILKVPETDEVELTCQATGYPLAEVSWPNVSVPANTSHSRTPEGLYQVTSVLRLKPPPGRNFSCVFWNTHVRELTLASIDLQSQMEPRTHPTGGGGSAPTSSSTKKTQLQLEHLLLDLQMILNGINNYKNPKLTDMLTFEFYMPKKATELKHLQCLERELKPLEEVLNLAQSKNFHLRPRDLISNINVIVLELKGSETTFMCEYADETATIVEFLNRWITFCQSIISTLTDKTHTCPPCPAPEDEGGPSVFLFPPKPKDTLMISRTPEVTCVVVDVSHEDPEVKFNWYVDGVEVHNAKTKPREEQYNSTYRVVSVLTVLHQDWLNGKEYKCKVSNKALPAPIEKTISKAKGQPREPQVYVYPPSREEMTKNQVSLTCLVKGFYPSDIAVEWESNGQPENNYKTTPPVLDEDGSFALVSKLTVDKSRWQQGNVFSCSVMHEALHNHYTQKSLSLSPGK
chain 2: LFTVTVPKELYIIEHGSNVTLECNFDTGSHVNLGAITASLQKVENDTSPHRERATLLEEQLPLGKASFHIPQVQVRDEGQYQCIIIYGVAWDYKYLTLKVKASYRKINTHILKVPETDEVELTCQATGYPLAEVSWPNVSVPANTSHSRTPEGLYQVTSVLRLKPPPGRNFSCVFWNTHVRELTLASIDLQSQMEPRTHPTGGGGSDKTHTCPPCPAPEKKGGPSVFLFPPKPKDTLMISRTPEVTCVVVDVSHEDPEVKFNWYVDGVEVHNAKTKPREEQYNSTYRVVSVLTVLHQDWLNGKEYKCKVSNKALPAPIEKTISKAKGQPREPQVYVLPPSREEMTKNQVSLLCLVKGFYPSDIAVEWESNGQPENRYMTWPPVLDSDGSFFLYSKLTVDKSRWQQGNVFSCSVMHEALHNHYTQKSLSLSPGK
notes: also called ligand-IL-2 mutant-PD-L2-Fc; IW-#11
